This assay deals with cell surface of 293 AAV cells (the filing names αvβ3 and αvβ5 integrins as the receptors of RGD4C). The assay can be described thus: 200000 TU/cell incubated 1 h on ice with 293AAV cells; unbound particles recovered from the medium, titrated on TG1 E. coli and counted as colonies; value relative to its control.

Take “M13.PAAV vector (non-targeted phagemid/AAV particle lacking RGD4C) (from UniProt P69168 19-424)”: the binding efficiency (percentage of vectors bound to the cell surface) is 7.1%.

As for “RGD.PAAV vector (RGD4C-targeted phagemid/AAV particle displaying the RGD4C peptide on the pIII minor coat protein)”, the binding efficiency (percentage of vectors bound to the cell surface) came out at 58.2%.

The record behind these values is patent US20200239535A1.
